Measurements reported in patent US20060211042A1 (Johns Hopkins, published 2006).

Target: T1, rEAAT3/EAAC1 (rat excitatory amino acid transporter 3), full length, expressed in HEK 293T cells (rat, UniProt P51907 1-523)
T1 sequence (looked up): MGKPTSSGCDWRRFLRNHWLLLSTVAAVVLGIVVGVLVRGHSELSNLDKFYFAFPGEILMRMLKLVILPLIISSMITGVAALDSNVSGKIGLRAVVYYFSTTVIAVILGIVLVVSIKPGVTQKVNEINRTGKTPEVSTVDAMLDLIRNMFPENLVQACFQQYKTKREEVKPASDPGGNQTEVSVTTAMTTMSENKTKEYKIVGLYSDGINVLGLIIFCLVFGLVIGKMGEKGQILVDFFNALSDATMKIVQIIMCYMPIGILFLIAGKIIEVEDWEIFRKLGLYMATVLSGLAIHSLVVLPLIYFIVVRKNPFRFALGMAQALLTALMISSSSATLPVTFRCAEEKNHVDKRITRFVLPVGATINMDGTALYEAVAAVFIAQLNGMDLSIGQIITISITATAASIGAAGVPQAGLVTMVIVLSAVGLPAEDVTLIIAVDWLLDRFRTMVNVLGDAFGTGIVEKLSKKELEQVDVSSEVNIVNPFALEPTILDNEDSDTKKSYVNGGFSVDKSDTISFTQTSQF
Assay: cell-based or functional assay

B1: GTRAP3-18 (Glutamate Transporter Associated Protein of EAAT3), HA-tagged, expressed in HEK 293T cells (other, not shown: small tags and cut ends)
chain: MDVNLAPLRAWDDFFPGSDRFARPDFRDISKWNNRVVSNLLYYQTNYLVVAAMMISVVGFLSPFNMILGGIIVVLVFTGFVWAAHNKDILRRMKKQYPTAFVMVVMLASYFLISMFGGVMVFVFGITFPLLLMFIHASLRLRNLKNKLENKMEGIGLKKTPMGIILDALEQQEDSINKFADYISKARE
decrease in Na+-dependent L-[3H]-glutamate uptake in HEK 293T cells, co-transfection at equal ratio: ~20%
